Here are results for one molecule from article PMC10296906, “GPCR Binding and JNK3 Activation by Arrestin-3 Have Different Structural Requirements” (Cells, 2023).

The target of the experiment is T1, LgBiT-tagged human M2 muscarinic acetylcholine receptor (human, UniProt P08172 1-466).
T1 construct: M2 muscarinic acetylcholine receptor, human, Gi-coupled; stimulated with 10 µM carbachol; also called M2R; source: HEK293 arrestin-2/3 knockout cells, transfected (pcDNA3), in live cells; not shown: LgBiT (17.6 kDa, with the 4-amino acid linker APAG), C-terminal, kept
T1 sequence (looked up): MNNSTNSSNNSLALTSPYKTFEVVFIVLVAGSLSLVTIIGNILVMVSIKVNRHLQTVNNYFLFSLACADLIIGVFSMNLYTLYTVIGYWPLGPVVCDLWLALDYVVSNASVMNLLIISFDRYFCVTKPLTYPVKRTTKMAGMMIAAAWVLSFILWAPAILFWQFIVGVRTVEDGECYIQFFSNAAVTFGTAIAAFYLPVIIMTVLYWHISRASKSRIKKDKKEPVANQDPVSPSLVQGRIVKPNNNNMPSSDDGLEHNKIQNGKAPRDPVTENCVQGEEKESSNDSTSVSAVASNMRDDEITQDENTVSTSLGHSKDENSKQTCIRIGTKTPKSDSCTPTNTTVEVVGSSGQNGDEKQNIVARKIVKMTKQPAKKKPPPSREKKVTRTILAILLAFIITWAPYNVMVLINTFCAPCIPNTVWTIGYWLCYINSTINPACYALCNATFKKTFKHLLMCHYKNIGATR
Briefly: split reporter (BiFC, NanoBiT); NanoBiT complementation in live HEK293 arrestin-2/3 KO cells: SmBiT-arrestin-3 and receptor-LgBiT co-expressed; luminescence read 20 min with nanoGlo substrate, then agonist added (10 µM isoproterenol for β2AR, 10 µM carbachol for M2R) and read 40 min; signal normalized to the basal signal without agonist. The note with it: partners not purified.

B1: SmBiT-tagged WT arrestin-3 (natural protein, UniProt P32120-2 1-409, looked up)
chain: MGEKPGTRVFKKSSPNCKLTVYLGKRDFVDHLDKVDPVDGVVLVDPDYLKDRKVFVTLTCAFRYGREDLDVLGLSFRKDLFIANYQAFPPTPNPPRPPTRLQERLLRKLGQHAHPFFFTIPQNLPCSVTLQPGPEDTGKACGVDFEIRAFCAKSLEEKSHKRNSVRLVIRKVQFAPEKPGPQPSAETTRHFLMSDRSLHLEASLDKELYYHGEPLNVNVHVTNNSTKTVKKIKVSVRQYADICLFSTAQYKCPVAQVEQDDQVSPSSTFCKVYTITPLLSNNREKRGLALDGKLKHEDTNLASSTIVKEGANKEVLGILVSYRVKVKLVVSRGGDVSVELPFVLMHPKPHDHIALPRPQSAAPETDAPVDTNLIEFETNYATDDDIVFEDFARLRLKGLKDEDYDDQFC
notes: also called arr3; WT arr3; source: HEK293 arrestin-2/3 knockout cells, transfected (pcDNA3), in live cells
In the case of B1, the “agonist-induced luminescence, fold over basal” value is about 8 fold.
